US20210244739A1

Target: human protein kinase R (PKR) (human) (UniProt P19525)
Assay: cell-based or functional assay

UniProt P19525, sequence (P19525 2-551 limits assumed): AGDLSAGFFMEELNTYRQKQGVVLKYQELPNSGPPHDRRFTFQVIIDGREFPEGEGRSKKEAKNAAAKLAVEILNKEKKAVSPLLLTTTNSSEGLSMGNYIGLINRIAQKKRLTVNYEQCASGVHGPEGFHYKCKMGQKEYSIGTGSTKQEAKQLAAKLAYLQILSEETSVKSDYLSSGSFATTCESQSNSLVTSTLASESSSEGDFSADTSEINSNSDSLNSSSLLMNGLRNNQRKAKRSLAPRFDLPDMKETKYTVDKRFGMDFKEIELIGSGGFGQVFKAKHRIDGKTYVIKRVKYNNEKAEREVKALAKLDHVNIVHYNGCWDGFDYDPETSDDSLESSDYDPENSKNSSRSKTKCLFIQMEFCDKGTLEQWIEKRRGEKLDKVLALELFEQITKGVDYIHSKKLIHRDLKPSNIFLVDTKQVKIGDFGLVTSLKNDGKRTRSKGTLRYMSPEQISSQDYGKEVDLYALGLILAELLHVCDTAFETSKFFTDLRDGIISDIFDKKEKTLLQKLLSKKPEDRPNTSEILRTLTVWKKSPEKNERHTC

## Yaba monkey tumor virus 012 (K3 ortholog)
  virus titre increase between 5 hpi and 48 hpi in HeLa cells: > 10 fold
